From patent US7446175 (dated 2008)

How the values were obtained:
[1] = target: T1, rhesus IL-1beta (rhesus monkey, UniProt P79182)
T1 chain: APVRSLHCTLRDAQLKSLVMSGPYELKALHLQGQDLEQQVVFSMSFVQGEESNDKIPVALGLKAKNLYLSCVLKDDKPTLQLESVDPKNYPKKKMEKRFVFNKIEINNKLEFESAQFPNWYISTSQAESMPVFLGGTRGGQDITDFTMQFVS

[2] = target: T2, mouse IL-1beta (mouse, UniProt P10749); assay: SPR, 8 nM
T2 chain: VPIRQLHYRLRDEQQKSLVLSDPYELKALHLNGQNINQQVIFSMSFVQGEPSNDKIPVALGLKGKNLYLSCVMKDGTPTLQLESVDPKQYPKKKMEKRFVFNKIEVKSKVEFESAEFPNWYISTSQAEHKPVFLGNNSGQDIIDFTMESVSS

[3] = target: T3, rabbit IL-1beta (rabbit, UniProt P14628); assay: SPR, 8 nM
T3 chain: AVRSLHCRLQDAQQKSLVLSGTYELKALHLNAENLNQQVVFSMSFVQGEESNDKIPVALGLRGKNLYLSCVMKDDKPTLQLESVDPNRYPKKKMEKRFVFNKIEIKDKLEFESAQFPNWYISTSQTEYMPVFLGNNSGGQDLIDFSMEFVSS

[4] = target: T4, rat IL-1beta (rat, UniProt Q63264); assay: SPR, 8 nM
T4 chain: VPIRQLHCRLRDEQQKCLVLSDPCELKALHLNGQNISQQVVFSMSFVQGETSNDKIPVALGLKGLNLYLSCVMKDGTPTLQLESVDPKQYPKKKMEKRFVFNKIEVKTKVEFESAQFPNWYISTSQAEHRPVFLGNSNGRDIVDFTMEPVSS

[5] = target: human IL-1Ra (human, UniProt P18510); assay: SPR, 8 nM

Measured: binding result

B1: ACZ885 (antibody, V domains shown)
VH: QVQLVESGGGVVQPGRSLRLSCAASGFTFSVYGMNWVRQAPGKGLEWVAIIWYDGDNQYYADSVKGRFTISRDNSKNTLYLQMNGLRAEDTAVYYCARDLRTGPFDYWGQGTLVTVSS
VL: EIVLTQSPDFQSVTPKEKVTITCRASQSIGSSLHWYQQKPDQSPKLLIKYASQSFSGVPSRFSGSGSGTDFTLTINSLEAEDAAAYYCHQSSSLPFTFGPGTKVDIK
no binding: all assays above
